Measured values published in patent US20120316071A1.
Each block holds one substance with its values, some of them ahead of it.

Tests used:
[1] = biological target: Recombinant Human DLL4 (R&D Systems Cat#1506-D4/CF) (human) (UniProt Q9NR61); assay: ECL multispot (MSD), 20 nM Fab
[2] = biological target: rHuman CD44/Fc Chimera, CF (R&D Systems Cat#3660-CD) (human) (UniProt P16070); assay: ECL multispot (MSD), 20 nM Fab
[3] = biological target: rHuman Erythropoietin R/Fc Chimera (human) (UniProt P19235); assay: ECL (MSD) multispot assay, antigen spotted; blank spot of this row 236
[4] = biological target: rHuman IGF-1 sR (insulin-like growth factor-1 soluble receptor) (human) (UniProt P08069); assay: as above
[5] = biological target: rHuman Notch-1/Fc Chimera (human) (UniProt P46531); assay: as above
[6] = biological target: rHuman HGF R/c-MET/Fc Chimera (human) (UniProt P08581); assay: as above
[7] = biological target: rHuman CD44/Fc Chimera (human) (UniProt P16070); assay: as above
[8] = biological target: rHuman IGF-1 sR (insulin-like growth factor-1 soluble receptor) (human) (UniProt P08069); assay: ECL (MSD) multispot assay, antigen spotted; blank spot of this row 424
[9] = biological target: rHuman HGF R/c-MET/Fc Chimera (human) (UniProt P08581); assay: as above
[10] = biological target: rHuman ErbB2/Fc Chimera, CF (R&D Systems Cat#1129-ER) (human) (UniProt P04626); assay: ECL multispot (MSD) binding assay, antigen spotted on plate, Fab in solution; blank spot 424
[11] = biological target: rHuman CD44/Fc Chimera, CF (R&D Systems Cat#3660-CD) (human) (UniProt P16070); assay: as above
[12] = biological target: rHuman IGF-1 sR, CF (R&D Systems Cat#391-GR) (human) (UniProt P08069); assay: as above
[13] = biological target: rHuman HGF R/c-MET/Fc Chimera, CF (R&D Systems Cat#358-MT/CF) (human) (UniProt P08581); assay: as above
[14] = biological target: rHuman P-Cadherin/Fc Chimera, CF (R&D Systems Cat#861-PC) (human) (UniProt P22223); assay: as above
[15] = biological target: rHuman Notch-1/Fc Chimera, CF (R&D Systems Cat#3647-TK) (human) (UniProt P46531); assay: as above
[16] = biological target: rHuman EGF R/Fc Chimera, CF (R&D Systems Cat#344-ER) (human) (UniProt P00533); assay: as above
[17] = biological target: rHuman ErbB2/Fc Chimera, CF (R&D Systems Cat#1129-ER) (human) (UniProt P04626); assay: ECL multispot (MSD) binding assay, antigen spotted on plate, Fab in solution; blank spot 240
[18] = biological target: rHuman CD44/Fc Chimera, CF (R&D Systems Cat#3660-CD) (human) (UniProt P16070); assay: as above
[19] = biological target: rHuman IGF-1 sR, CF (R&D Systems Cat#391-GR) (human) (UniProt P08069); assay: as above
[20] = biological target: rHuman HGF R/c-MET/Fc Chimera, CF (R&D Systems Cat#358-MT/CF) (human) (UniProt P08581); assay: as above
[21] = biological target: rHuman P-Cadherin/Fc Chimera, CF (R&D Systems Cat#861-PC) (human) (UniProt P22223); assay: as above
[22] = biological target: rHuman Notch-1/Fc Chimera, CF (R&D Systems Cat#3647-TK) (human) (UniProt P46531); assay: as above
[23] = biological target: rHuman EGF R/Fc Chimera, CF (R&D Systems Cat#344-ER) (human) (UniProt P00533); assay: as above
[24] = biological target: rHuman ErbB2/Fc Chimera, CF (R&D Systems Cat#1129-ER) (human) (UniProt P04626); assay: ECL multispot (MSD) binding assay, antigen spotted on plate, Fab in solution; blank spot 213
[25] = biological target: rHuman CD44/Fc Chimera, CF (R&D Systems Cat#3660-CD) (human) (UniProt P16070); assay: as above
[26] = biological target: rHuman IGF-1 sR, CF (R&D Systems Cat#391-GR) (human) (UniProt P08069); assay: as above
[27] = biological target: rHuman HGF R/c-MET/Fc Chimera, CF (R&D Systems Cat#358-MT/CF) (human) (UniProt P08581); assay: as above
[28] = biological target: rHuman P-Cadherin/Fc Chimera, CF (R&D Systems Cat#861-PC) (human) (UniProt P22223); assay: as above
[29] = biological target: rHuman Notch-1/Fc Chimera, CF (R&D Systems Cat#3647-TK) (human) (UniProt P46531); assay: as above
[30] = biological target: rHuman EGF R/Fc Chimera, CF (R&D Systems Cat#344-ER) (human) (UniProt P00533); assay: as above
[31] = biological target: rHuman HGF R/c-MET/Fc Chimera, CF (R&D Systems Cat#358-MT/CF) (human) (UniProt P08581); assay: ECL multispot (MSD) binding assay, antigens spotted on plate, 20 nM Fab
[32] = biological target: rHuman ErbB2/Fc Chimera, CF (R&D Systems Cat#1129-ER) (human) (UniProt P04626); assay: ECL multispot (MSD) binding assay, antigen spotted on plate, Fab in solution; blank spot 306
[33] = biological target: rHuman CD44/Fc Chimera, CF (R&D Systems Cat#3660-CD) (human) (UniProt P16070); assay: as above
[34] = biological target: rHuman IGF-1 sR, CF (R&D Systems Cat#391-GR) (human) (UniProt P08069); assay: as above
[35] = biological target: rHuman HGF R/c-MET/Fc Chimera, CF (R&D Systems Cat#358-MT/CF) (human) (UniProt P08581); assay: as above
[36] = biological target: rHuman P-Cadherin/Fc Chimera, CF (R&D Systems Cat#861-PC) (human) (UniProt P22223); assay: as above
[37] = biological target: rHuman Notch-1/Fc Chimera, CF (R&D Systems Cat#3647-TK) (human) (UniProt P46531); assay: as above
[38] = biological target: rHuman EGF R/Fc Chimera, CF (R&D Systems Cat#344-ER) (human) (UniProt P00533); assay: as above
[39] = biological target: Recombinant Human DLL4 (delta-like protein 4) (human) (UniProt Q9NR61); assay: ECL (MSD electrochemiluminescence) binding assay, Fab on immobilised recombinant human DLL4
[40] = biological target: Recombinant Human DLL4 (delta-like protein 4) (human) (UniProt Q9NR61); assay: ELISA, Fab on coated recombinant human DLL4, signal minus noise
[41] = biological target: rHuman Notch-1/Fc Chimera, CF (R&D Systems Cat#3647-TK) (human) (UniProt P46531); assay: ECL multispot (MSD), 20 nM Fab
[42] = biological target: rHuman Erythropoietin R/Fc Chimera (human) (UniProt P19235); assay: ECL (MSD) multispot assay, antigen spotted; blank spot of this row 223
[43] = biological target: rHuman IGF-1 sR (insulin-like growth factor-1 soluble receptor) (human) (UniProt P08069); assay: as above
[44] = biological target: rHuman HGF R/c-MET/Fc Chimera (human) (UniProt P08581); assay: as above
[45] = biological target: rHuman CD44/Fc Chimera (human) (UniProt P16070); assay: as above
[46] = biological target: rHuman Erythropoietin R/Fc Chimera (human) (UniProt P19235); assay: ECL (MSD) multispot assay, antigen spotted; blank spot of this row 284
[47] = biological target: rHuman IGF-1 sR (insulin-like growth factor-1 soluble receptor) (human) (UniProt P08069); assay: as above
[48] = biological target: rHuman HGF R/c-MET/Fc Chimera (human) (UniProt P08581); assay: as above
[49] = biological target: rHuman ErbB2/Fc Chimera, CF (R&D Systems Cat#1129-ER) (human) (UniProt P04626); assay: ECL multispot (MSD), 20 nM Fab
[50] = biological target: rHuman EGF R/Fc Chimera, CF (R&D Systems Cat#344-ER) (human) (UniProt P00533); assay: ECL multispot (MSD), 20 nM Fab

Substance: Fab VH5-51_IGHD5-18*01>3_IGHJ4*01 G100K/G104T & V3-4_IGLJ1*01
ECL signal [8]: 877
ECL signal [9]: 838
ECL signal [10]: 1100
ECL signal [11]: 579
ECL signal [12]: 877
ECL signal [13]: 838
ECL signal [14]: 319
ECL signal [15]: 543
ECL signal [16]: 852
ECL signal [17]: 1070
ECL signal [18]: 633
ECL signal [19]: 964
ECL signal [20]: 936
ECL signal [21]: 346
ECL signal [22]: 507
ECL signal [23]: 915
ECL signal [24]: 1100
ECL signal [25]: 540
ECL signal [26]: 781
ECL signal [27]: 867
ECL signal [28]: 226
ECL signal [29]: 437
ECL signal [30]: 768

Substance: Fab VH5-51_IGHD5-18*01>3_IGHJ4*01 G100K/G104T D55A & V3-4_IGLJ1*01
ECL signal [32]: 1030
ECL signal [33]: 606
ECL signal [34]: 898
ECL signal [35]: 856
ECL signal [36]: 310
ECL signal [37]: 683
ECL signal [38]: 729

Substance: Fab VH5-51_IGHD5-18*01>3_IGHJ4*01 G100K/G104T T58D/K & V3-4_IGLJ1*01
ECL signal [39]: 823
ELISA (Signal-Noise) [40]: 0.03

Substance: Fab VH3-23_IGHD2-21*01>3_IGHJ6*01 H100E/S108P/Y113G (EPG) & V2-13_IGLJ2*01
ECL signal ratio (column head gives no unit) [1]: 2.3
ECL signal ratio (column head gives no unit) [41]: 2.3

Further lines, results first:

ECL signal ratio (column head gives no unit) [1]: 4.3
ECL signal ratio (column head gives no unit) [2]: 2.4
Substance: Fab VH3-23_IGHD2-21*01>3_IGHJ6*01 H100E/S108P/Y113G (EPG) Y109W & V2-13_IGLJ2*01

ECL signal [3]: 484
ECL signal [4]: 914
ECL signal [5]: 505
ECL signal [6]: 811
ECL signal [7]: 577
Substance: Fab VH5-51_IGHD5-18*01>3_IGHJ4*01 G100K/G104T S84V & V3-4_IGLJ1*01

ECL multispot signal (ratio to blank; column not labelled) [31]: 2.3
Substance: Fab VH3-23_IGHD2-21*01>3_IGHJ6*01 H100E/S108P/Y113G Y110N & V2-13_IGLJ2*01

ECL signal [42]: 458
ECL signal [43]: 908
ECL signal [44]: 933
ECL signal [45]: 545
Substance: Fab VH5-51_IGHD5-18*01>3_IGHJ4*01 G100K/G104T S84L & V3-4_IGLJ1*01

ECL signal [46]: 612
ECL signal [47]: 967
ECL signal [48]: 846
Substance: Fab VH5-51_IGHD5-18*01>3_IGHJ4*01 G100K/G104T D109A & V3-4_IGLJ1*01

ECL signal ratio (column head gives no unit) [49]: 2.1
ECL signal ratio (column head gives no unit) [50]: 2.2
Substance: Fab VH3-23_IGHD2-21*01>3_IGHJ6*01 H100E/S108P/Y113G (EPG) Y109L & V2-13_IGLJ2*01
